In US20150010525A1, “Catalytic Tagging System to Study Macro-Molecular Interactions Using Engineered Ubiquitin Ligase and Ubiquitin-Like Proteins to Facilitate Substrate Identification” (THE REGENTS OF THE UNIVERSITY OF CALIFORNIA, priority 2012, published 2015):

B1: Malate dehydrogenase, mitochondrial: potential cIAP1 substrate (protein, UniProt P40926 25-338, looked up)
Malate dehydrogenase, …: AKVAVLGASGGIGQPLSLLLKNSPLVSRLTLYDIAHTPGVAADLSHIETKAAVKGYLGPEQLPDCLKGCDVVVIPAGVPRKPGMTRDDLFNTNATIVATLTAACAQHCPEAMICVIANPVNSTIPITAEVFKKHGVYNPNKIFGVTTLDIVRANTFVAELKGLDPARVNVPVIGGHAGKTIIPLISQCTPKVDFPQDQLTALTGRIQEAGTEVVKAKAGAGSATLSMAYAGARFVFSLVDAMNGKEGVVECSFVKSQETECTYFSTPLLLGKKGIEKNLGIGKVSSFEEKMISDAIPELKASIKKGEDFVKTLK
B2: 3-hydroxyacyl-CoA dehydrogenase type-2: potential cIAP1 substrate (protein, UniProt Q99714 2-261, looked up)
3-hydroxyacyl-CoA …: AAACRSVKGLVAVITGGASGLGLATAERLVGQGASAVLLDLPNSGGEAQAKKLGNNCVFAPADVTSEKDVQTALALAKGKFGRVDVAVNCAGIAVASKTYNLKKGQTHTLEDFQRVLDVNLMGTFNVIRLVAGEMGQNEPDQGGQRGVIINTASVAAFEGQVGQAAYSASKGGIVGMTLPIARDLAPIGIRVMTIAPGLFGTPLLTSLPEKVCNFLASQVPFPSRLGDPAEYAHLVQAIIENPFLNGEVIRLDGAIRMQP
B3: Serine protease HtrA2, mitochondrial: known IAP substrate (protein, UniProt O43464 134-458, looked up)
Serine protease HTRA2, …: AVPSPPPASPRSQYNFIADVVEKTAPAVVYIEILDRHPFLGREVPISNGSGFVVAADGLIVTNAHVVADRRRVRVRLLSGDTYEAVVTAVDPVADIATLRIQTKEPLPTLPLGRSADVRQGEFVVAMGSPFALQNTITSGIVSSAQRPARDLGLPQTNVEYIQTDAAIDFGNSGGPLVNLDGEVIGVNTMKVTAGISFAIPSDRLREFLHRGEKKNSSSGISGSQRRYIGVMMLTLSPSILAELQLREPSFPDVQHGVLIHKVILGSPAHRAGLRPGDVILAIGEQMVQNAEDVYEAVRTQSQLAVQIRRGRETLTLYVTPEVTE
B4: SMAC/Diablo homolog, mitochondrial: known IAP substrate (protein, UniProt Q9NR28 22-239, looked up)
Diablo IAP-binding …: LCVPVVANFKKRCFSELIRPWHKTVTIGFGVTLCAVPIAQKSEPHSLSSEALMRRAVSLVTDSTSTFLSQTTYALIEAITEYTKAVYTLTSLYRQYTSLLGKMNSEEEDEVWQVIIGARAEMTSKHQEYLKLETTWMTAVGLSEMAAEAAYQTGADQASITARNHIQLVKLQVEEVHQLSRKAETKLAEAQIEELRQKTQEEGEERAESEQEAYLRED
B5: Pre-mRNA-splicing factor SPF27: potential XIAP substrate (protein, UniProt O75934 2-225, looked up)
Pre-mRNA-splicing factor SPF27: AGTGLVAGEVVVDALPYFDQGYEAPGVREAAAALVEEETRRYRPTKNYLSYLTAPDYSAFETDIMRNEFERLAARQPIELLSMKRYELPAPSSGQKNDITAWQECVNNSMAQLEHQAVRIENLELMSQHGCNAWKVYNENLVHMIEHAQKELQKLRKHIQDLNWQRKNMQLTAGSKLREMESNWVSLVSKNYEIERTIVQLENEIYQIKQQHGEANKENIRQDF

Biological target: T1, cIAP1 (Homo sapiens, UniProt P61081+Q13490)
T1 construct: cIAP1(ΔR) (residues 1-555); GST (N, cleaved yes); made in house; host or cells: E. coli BL21 (DE3)
T1 sequence (Q13490+P61081 fused): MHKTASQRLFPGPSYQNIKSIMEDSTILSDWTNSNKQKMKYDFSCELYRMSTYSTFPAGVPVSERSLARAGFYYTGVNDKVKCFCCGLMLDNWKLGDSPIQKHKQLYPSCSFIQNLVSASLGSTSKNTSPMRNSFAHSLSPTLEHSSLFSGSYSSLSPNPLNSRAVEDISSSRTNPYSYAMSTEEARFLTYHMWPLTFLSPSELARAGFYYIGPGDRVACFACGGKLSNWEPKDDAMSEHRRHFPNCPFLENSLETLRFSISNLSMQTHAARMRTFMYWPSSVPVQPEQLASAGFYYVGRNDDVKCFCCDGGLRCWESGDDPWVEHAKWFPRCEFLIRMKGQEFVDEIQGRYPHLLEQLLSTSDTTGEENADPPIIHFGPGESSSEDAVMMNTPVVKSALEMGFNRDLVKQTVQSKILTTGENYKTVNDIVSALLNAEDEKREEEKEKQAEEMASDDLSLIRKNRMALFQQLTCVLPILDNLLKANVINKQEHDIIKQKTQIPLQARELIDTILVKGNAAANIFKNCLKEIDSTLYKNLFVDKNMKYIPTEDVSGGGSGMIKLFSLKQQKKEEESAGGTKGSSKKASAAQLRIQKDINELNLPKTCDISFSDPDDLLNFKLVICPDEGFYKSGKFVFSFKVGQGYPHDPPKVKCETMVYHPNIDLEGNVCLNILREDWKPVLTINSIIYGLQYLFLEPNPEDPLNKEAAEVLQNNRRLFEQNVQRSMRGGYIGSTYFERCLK
Assay: SILAC mass spectrometry screen for cIAP1 substrates with NEDDylator^cIAP1 in apoptotic Jurkat cell lysate
Type: biochemical
Details: Light lysate with NEDDylator^cIAP1, Heavy lysate with Ubc12
Protocol: Jurkat cells were grown in media containing either light or heavy isotopes of lysine and arginine and induced to undergo apoptosis with STS. Light cell extracts were incubated with the respective catalytic tagging system for each of the two IAPs and the heavy extracts labeled only with the wild-type NEDD8 E2, Ubc12. […] 100 mg ^13C6^15N2 L-Lys.2HCl and 86 mg ^13C6 L-Arg.HCl (Cambridge Isotope) were added to the same amount of medium to generate the “Heavy” medium. Jurkat cells were cultured separately in “Light” or “Heavy” medium for 7 days to allow for thorough isotope incorporation. For IAP substrate identification, 400 million cells were treated with 2 μM STS for 4 hours, harvested, lysed in M-PER mammalian protein extraction buffer (Thermo/Pierce) in the presence of protease inhibitors (100× ProteoBlock cocktail, Fermentas) and mixed with cell lysate prepared from 400 million untreated cells. […] Purified NEDDylated proteins were trypsinized and analyzed with tandem mass spectrometry (LC-MS/MS).
(§1) For SILAC experiments, Jurkat cells were cultured separately in “Light” (supplemented with regular Lys and Arg) or “Heavy” (supplemented with ^13C6^15N2 Lys and ^13C6 Arg) medium for 7 days to allow for thorough isotope incorporation. Apoptotic “Light” and “Heavy” cell extracts were prepared individually. The lysates were cleared by spinning and then diluted in 50 mM HEPES pH 7.4, 150 mM NaCl to 5 mg/ml and supplemented with 5 mM ATP, 10 mM MgCl2. Endogenous NEDD8 E1 is cell lysate was used to catalyze the reaction. HB-NEDD8 was added to both lysate at mass ratio 1:500; the catalytic tagging system was added to the “Light” lysate at mass ratio 1:1000. Equal molar of Ubc12 was added to the “Heavy” lysate. […] NEDDylated proteins were separated by one-dimensional SDS-PAGE, and trypsinized for LC-MS/MS analysis.
For liquid chromatography—Tandem mass spectrometry (LC-MS/MS) analysis, the tryptic peptides were first desalted and concentrated with a C18 Ziptip (Millipore). LC-MS/MS was carried out by reverse phase LC interfaced with a LTQ-Orbitrap (ThermoFisher Scientific) hybrid mass spectrometer. A nanoflow HPLC (NanoAcquity UPLC system, Waters Corporation) was equipped with a trap column (180 μm×20 mm, 5 μm SymmetryC18, from Waters) and an analytical column (100 μm×100 mm, 1.7 μm BEH130C18, from Waters). Peptides were eluted over a linear gradient from 2% solvent A (0.1% formic acid in water) to 35% solvent B (0.1% formic acid in acetonitrile) at 350 nL/min over 35 min. MS and MS/MS spectra were acquired in a data-dependent mode with MS spectra acquired in the Orbitrap at 30,000 resolving power and 6 CID MS/MS spectra acquired per MS in the LTQ linear ion trap. Dynamic exclusion was set at 90 seconds to prevent repeated MS/MS on the same precursor ion.
The identified peptides were searched against a random decoy protein database for evaluating the false positive rates. […] The decoy peptides were removed from the data. Protein IDs were assigned only when at least two unique peptides were identified from the same protein. For SILAC experiment, Light/Heavy ratios for the identified peptides were calculated, using ProteinProspector. The media Light/Heavy ratios of all the peptides identified for each protein were used to represent the Light/Heavy ratio of the protein.

Point of comparison: B4, “L/H (Light/Heavy ratio)” value 53.4. Against it:
- B1 — lower, 4.35
- B2 — lower, 4.1
- B3 — lower, 39.2

Biological target: T2, XIAP (Homo sapiens, UniProt P61081+P98170)
T2 construct: The N-terminus (residues 1-434) of XIAP was then fused via a flexible Gly-Gly-Ser-Gly linker to the NEDD8 E2, Ubc12; GST (N, cleaved yes); made in house; host or cells: E. coli BL21 (DE3)
T2 sequence (P98170+P61081 fused): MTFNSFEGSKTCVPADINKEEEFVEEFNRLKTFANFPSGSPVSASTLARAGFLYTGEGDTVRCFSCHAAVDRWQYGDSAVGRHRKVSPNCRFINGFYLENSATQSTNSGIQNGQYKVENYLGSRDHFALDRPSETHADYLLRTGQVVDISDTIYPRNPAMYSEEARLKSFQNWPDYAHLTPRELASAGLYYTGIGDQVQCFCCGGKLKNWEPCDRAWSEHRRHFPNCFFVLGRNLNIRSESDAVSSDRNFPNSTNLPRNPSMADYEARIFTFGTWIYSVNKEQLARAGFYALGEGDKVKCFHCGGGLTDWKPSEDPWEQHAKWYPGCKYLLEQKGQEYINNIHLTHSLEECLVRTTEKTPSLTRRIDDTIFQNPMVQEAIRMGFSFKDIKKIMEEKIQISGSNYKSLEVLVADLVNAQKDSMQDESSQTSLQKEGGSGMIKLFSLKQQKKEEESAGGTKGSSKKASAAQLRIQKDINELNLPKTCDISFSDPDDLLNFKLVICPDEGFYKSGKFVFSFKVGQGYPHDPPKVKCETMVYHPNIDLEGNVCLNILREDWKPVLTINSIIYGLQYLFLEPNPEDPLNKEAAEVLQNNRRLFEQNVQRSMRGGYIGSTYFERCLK
Assay: SILAC mass spectrometry screen for XIAP substrates with NEDDylator^XIAP in apoptotic Jurkat cell lysate
Type: biochemical
Details: Heavy lysate with Ubc12
Protocol: Jurkat cells were grown in media containing either light or heavy isotopes of lysine and arginine and induced to undergo apoptosis with STS. Light cell extracts were incubated with the respective catalytic tagging system for each of the two IAPs and the heavy extracts labeled only with the wild-type NEDD8 E2, Ubc12. 64 mg regular L-Lys and 83.6 mg L-Arg.HCl were added to 1 liter RPMI-1640 minus L-Lys and L-Arg (Thermo/Pierce), 10% fetal bovine serum (FBS) to generate “Light” medium. 100 mg ^13C6^15N2 L-Lys.2HCl and 86 mg ^13C6 L-Arg.HCl (Cambridge Isotope) were added to the same amount of medium to generate the “Heavy” medium. Jurkat cells were cultured separately in “Light” or “Heavy” medium for 7 days to allow for thorough isotope incorporation. For IAP substrate identification, 400 million cells were treated with 2 μM STS for 4 hours, harvested, lysed in M-PER mammalian protein extraction buffer (Thermo/Pierce) in the presence of protease inhibitors (100× ProteoBlock cocktail, Fermentas) and mixed with cell lysate prepared from 400 million untreated cells. The NEDDylated proteins were isolated under denaturing conditions via the HB-NEDD8 tag using a tandem affinity pull down procedure (Tagwerker et al., Mol Cell Proteomics 5:737-748 (2006)) (FIG. 11). Purified NEDDylated proteins were trypsinized and analyzed with tandem mass spectrometry (LC-MS/MS).
as §1
For liquid chromatography—Tandem mass spectrometry (LC-MS/MS) analysis, the tryptic peptides were first desalted and concentrated with a C18 Ziptip (Millipore). LC-MS/MS was carried out by reverse phase LC interfaced with a LTQ-Orbitrap (ThermoFisher Scientific) hybrid mass spectrometer. A nanoflow HPLC (NanoAcquity UPLC system, Waters Corporation) was equipped with a trap column (180 μm×20 mm, 5 μm SymmetryC18, from Waters) and an analytical column (100 μm×100 mm, 1.7 μm BEH130C18, from Waters). […]

Point of comparison: B4, “L/H (Light/Heavy ratio)” value 7.39. Against it:
- B3 — higher, 21.4
- B5 — lower, 4.35
